As a reminder, the Kd is the constant that tells how readily two partners part at equilibrium. Low readings indicate tighter binding, high ones weaker binding.

The chains are these.
B1: wild-type FokI restriction endonuclease (enzyme, UniProt P14870 1-579, looked up)
chain: MVSKIRTFGWVQNPGKFENLKRVVQVFDRNSKVHNEVKNIKIPTLVKESKIQKELVAIMNQHDLIYTYKELVGTGTSIRSEAPCDAIIQATIADQGNKKGYIDNWSSDGFLRWAHALGFIEYINKSDSFVITDVGLAYSKSADGSAIEKEILIEAISSYPPAIRILTLLEDGQHLTKFDLGKNLGFSGESGFTSLPEGILLDTLANAMPKDKGEIRNNWEGSSDKYARMIGGWLDKLGLVKQGKKEFIIPTLGKPDNKEFISHAFKITGEGLKVLRRAKGSTKFTRVPKRVYWEMLATNLTDKEYVRTRRALILEILIKAGSLKIEQIQDNLKKLGFDEVIETIENDIKGLINTGIFIEIKGRFYQLKDHILQFVIPNRGVTKQLVKSELEEKKSELRHKLKYVPHEYIELIEIARNSTQDRILEMKVMEFFMKVYGYRGKHLGGSRKPDGAIYTVGSPIDYGVIVDTKAYSGGYNLPIGQADEMQRYVEENQTRNKHINPNEWWKVYPSSVTEFKFLFVSGHFKGNYKAQLTRLNHITNCNGAVLSVEELLIGGEMIKAGTLTLEEVRRKFNNGEINF

Series [1] deals with the molecule itself. Briefly: single-turnover enzyme kinetics.
For series [2], the target named is B1. Briefly: steady-state enzyme kinetics.

Regarding B1, binding in series [1] was characterised by a dissociation constant (Kd) of 99 ± 19 nM.

B2: N13Y variant of the FokI endonuclease (enzyme, UniProt P14870 1-579, looked up)
chain: MVSKIRTFGWVQYPGKFENLKRVVQVFDRNSKVHNEVKNIKIPTLVKESKIQKELVAIMNQHDLIYTYKELVGTGTSIRSEAPCDAIIQATIADQGNKKGYIDNWSSDGFLRWAHALGFIEYINKSDSFVITDVGLAYSKSADGSAIEKEILIEAISSYPPAIRILTLLEDGQHLTKFDLGKNLGFSGESGFTSLPEGILLDTLANAMPKDKGEIRNNWEGSSDKYARMIGGWLDKLGLVKQGKKEFIIPTLGKPDNKEFISHAFKITGEGLKVLRRAKGSTKFTRVPKRVYWEMLATNLTDKEYVRTRRALILEILIKAGSLKIEQIQDNLKKLGFDEVIETIENDIKGLINTGIFIEIKGRFYQLKDHILQFVIPNRGVTKQLVKSELEEKKSELRHKLKYVPHEYIELIEIARNSTQDRILEMKVMEFFMKVYGYRGKHLGGSRKPDGAIYTVGSPIDYGVIVDTKAYSGGYNLPIGQADEMQRYVEENQTRNKHINPNEWWKVYPSSVTEFKFLFVSGHFKGNYKAQLTRLNHITNCNGAVLSVEELLIGGEMIKAGTLTLEEVRRKFNNGEINF
B2: the Kd in series [2] was found to be 166 ± 73 nM.

For the origin of these results see paper PMC1410913 (Nucleic Acids Research, 2006).
